Assay results taken from paper PMC12159676, “An uncharacterized gene from the Actinobacillus genus encodes a glucosyltransferase with successive transfer activity and unique substrate specificity” (The Journal of Biological Chemistry, 2025).
Where a chain is given by its changes, count along the chain named. Numbers in names are those of the source.

Molecular target: the molecule itself
Assay: SEC; gel-filtration chromatography of purified AmGGT and its mutants, with protein size markers; self-association, dimer against monomer

B1: Actinobacillus minor glucoside-glucosyltransferase (AmGGT), wild type (enzyme, Actinobacillus minor NM305, UniProt C5RYK2 1-341, looked up)
chain: MSNITFYFPFGHVPTYGGDFVNLEHIRALNKHGFSAKVILMKNQIPIVIESFPKDIPVVFYKPGMELNAQDVFVLSEGVRIMYSGLAQTQAFRVIVHNQNPFYTHTGMDSAHDINRYRITKIITPSHYTVKKLEEMGITKPMAVISPYIPEYFKPAEKSNEEIRITYSRRKREEESKILLFYLRSLYRGKKALHIRNLTNYKREEVAEEMSKAHIYASFAERESLGLMALEAMASGCHVVGFSGFTDFENQDVFNEENGDWVKEGEYKKFAEKLIEAIEQIENNTPSPKIENGLALVNSRFRQDRFEQEVVRVYQDILDNLPPLEGFNESDKVVLDFWHFD
notes: AmGGT, product of the ORF AM305_00150 of Actinobacillus minor strain NM305; ORF retrieved from NCBI, chemically synthesized, cloned into pET47b; The whole ORF was cloned; residues left over from the 3C protease site after cleavage are not described; also called AM305_00150 protein; WT AmGGT; source: E. coli BL21(DE3), purified (Ni-Sepharose, 3C protease cleavage, gel filtration; also HiTrapQ ion …)
- stoichiometry N: 2

B2: AmGGT E135A mutant (enzyme)
chain: B1 chain with E135A
notes: AmGGT, product of the ORF AM305_00150 of Actinobacillus minor strain NM305, with E135A; Production of the mutants is not described separately; source: E. coli BL21(DE3), purified (as told for the AmGGT protein); not shown: His6, N-terminal, cleaved
- binding result: binds

B3: AmGGT S185A mutant (enzyme)
chain: B1 chain with S185A
notes: AmGGT, product of the ORF AM305_00150 of Actinobacillus minor strain NM305, with S185A; Production of the mutants is not described separately; source: E. coli BL21(DE3), purified (as told for the AmGGT protein); not shown: His6, N-terminal, cleaved
- binding result: binds
